Consider two molecules from patent US20240254248A1 (JIANGSU HENGRUI MEDICINE, published 2024).

In assay [1] the target is T1, CD40 on HEK293-CD40 cells.
T1 construct: whole, on cells
In words: binding to HEK293-CD40 cells.

Assay [2] has as its target T2, human CD40 (hCD40) (human, UniProt P25942 21-193). In words: ELISA blocking of hCD40/hCD40L binding.
In assay [3] the target is T2, human CD40 (hCD40). Kind of assay: ELISA blocking of hCD40/hCD40L binding. The source holds these as a separate data set.
The target in assay [4] is T1, CD40 on HEK293-CD40 cells. Kind of assay: binding to HEK293-CD40 cells. The source holds these as a separate data set.

Where two headings read alike, the source gives them in different places.

T1 sequence (P25942 21-277): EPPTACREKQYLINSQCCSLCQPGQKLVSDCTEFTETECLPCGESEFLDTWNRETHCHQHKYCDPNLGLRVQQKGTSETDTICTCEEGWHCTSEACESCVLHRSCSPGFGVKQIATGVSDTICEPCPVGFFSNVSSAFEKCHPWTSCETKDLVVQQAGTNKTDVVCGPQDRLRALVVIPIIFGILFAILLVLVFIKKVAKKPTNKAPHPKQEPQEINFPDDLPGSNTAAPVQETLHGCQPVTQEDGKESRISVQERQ
T2 sequence (P25942 21-193 limits assumed): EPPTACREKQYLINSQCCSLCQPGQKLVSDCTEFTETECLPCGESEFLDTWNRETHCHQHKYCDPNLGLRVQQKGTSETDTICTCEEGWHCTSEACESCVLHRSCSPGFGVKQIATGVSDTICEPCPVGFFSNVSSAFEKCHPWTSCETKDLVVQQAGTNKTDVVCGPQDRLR

B1: human-murine chimeric antibody 9E5-C (antibody, IgG1, V domains shown)
VH: QVQLQQPGADLVKPGASVKMSCKASGYILTTYWITWVKQRPGQGLEWIGDIHPGSGSTKYNEKFKSKATLTVDTSSSTAYMQLTRLSSEDSAVYYCARRDYWGQGTTLTVSS
VL: DVLMTQSPLSLPVSLGDQASISCRSSQNIVNSQGNTYLEWYLQKPGESPKLLIYKVTNRFSGVPDRFSGSGSGTDFTLKISRVEAEDLGVYYCFQASLVPWTFGGGTKLEIK
notes: also called 9E5 chimeric antibody
The molecule B1 registered an EC50 in assay [1] of 0.0333 mg/L. In the assay with human CD40 (hCD40) [2], this molecule registered an IC50 of 0.122 mg/L.

B2: humanized antibody hu9E5 (H1c heavy chain and L1a light chain) (antibody, human IgG1, kappa, V domains shown)
VH: QVQLVQSGAEVKKPGASVKVSCKASGYILTTYWITWVRQAPGQGLEWMGDIHPGSGSTKYNEKFKSRVTLTVDTSISTAYMELSRLRSEDTAVYYCARRDYWGQGTTVTVSS
VL: DIVMTQSPLSLPVTPGEPASISCRSSQNIVNSQGNTYLEWYLQKPGQSPQLLIYKVTNRFSGVPDRFSGSGSGTDFTLKISRVEAEDVGVYYCFQASLVPWTFGGGTKVEIKR
notes: also called Hu9E5-25
Take B2: the IC50 in the assay with human CD40 (hCD40) [3] stood at 0.308 mg/L. Moreover, in assay [4], a half-maximal effect (EC50) was put at 0.14 mg/L.
